Experiments:
[1] = molecular target: MBP-VDR-LBDmt (human); test: ITC
[2] = molecular target: MBP-VDR-LBDmt (human); test: pull-down

Row | Kd [1] | dH [1] | stoichiometry N [1] | peptide concentration at which inhibition of SRC2-VDR binding was observed [2] | Substance
1 | 174 nM | -6.7 kcal/mol | 1.02 |  | SRC2-3 peptide, unlabeled
2 |  |  |  | > 50 µM | SRC3-1 peptide, unlabeled
3 | 285 nM | -2.2 kcal/mol | 0.93 |  | SRC2-3 peptide, Texas Red labeled

Reference: article PMC2654718
